From US20250368745A1 (published 2025)
Numbering of substitutions follows the chain as printed.

T1: human IL-18BP (human, UniProt O95998 31-194)
T1 construct: UniProt printed as 095998; also called hIL-18BP
T1 sequence: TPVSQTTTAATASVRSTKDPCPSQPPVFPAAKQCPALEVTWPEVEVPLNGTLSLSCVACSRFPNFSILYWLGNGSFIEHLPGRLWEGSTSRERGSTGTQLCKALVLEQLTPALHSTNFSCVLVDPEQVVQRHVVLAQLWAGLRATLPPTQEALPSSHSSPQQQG

T2: cynomolgus IL-18BP (cynomolgus monkey)
T2 construct: also called cyno IL-18BP; cyIL-18BP
T2 chain: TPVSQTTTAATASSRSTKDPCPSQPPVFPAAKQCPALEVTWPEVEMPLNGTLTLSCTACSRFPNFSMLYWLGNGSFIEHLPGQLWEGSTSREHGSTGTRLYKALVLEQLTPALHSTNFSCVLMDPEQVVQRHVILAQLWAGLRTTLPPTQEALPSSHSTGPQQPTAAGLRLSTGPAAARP

T3: human IL-18BP (interleukin-18 binding protein, isoform A) (human, UniProt O95998 31-194)
T3 sequence: T1 sequence

B1: SA301a HC-V100aG (antibody, name in Kabat numbering, V domains shown)
VH: QVQLQESGPGLVKPSQTLSLTCTVSGYSITSDYNSHWIRQPPGKGLEWIGYIHYSGSTNYNPSLKSRVTISRDTSKNQFSLKLSSVTAADTAVYYCARNYGSIYGNYFDYWGQGTLVTVSS
VL: EIVLTQSPATLSLSPGERATLSCSASSSVSYMYWYQQKPGQAPRPLIYRTSNLASGIPARFSGSGSGTDFTLTISSLEPEDFAVYYCQQYHSYPTFGGGTKVEIK
notes: IgG1 kappa
B2: SA301a HC-I99Q (antibody, name in Kabat numbering, V domains shown)
VH: B1 VH with I103Q, G105V
VL: B1 VL
notes: IgG1 kappa
B3: SA301a HC-V100aH (antibody, name in Kabat numbering, V domains shown)
VH: B1 VH with G105H
VL: B1 VL
notes: IgG1 kappa
B4: SA301a HC-I99R (antibody, name in Kabat numbering, V domains shown)
VH: B1 VH with I103R, G105V
VL: B1 VL
notes: IgG1 kappa
B5: SA301a HC-V100aN (antibody, name in Kabat numbering, V domains shown)
VH: B1 VH with G105N
VL: B1 VL
notes: IgG1 kappa
B6: SA301a HC-V100aA (antibody, name in Kabat numbering, V domains shown)
VH: B1 VH with G105A
VL: B1 VL
notes: IgG1 kappa
B7: SA301a HC-I99H (antibody, name in Kabat numbering, V domains shown)
VH: B1 VH with I103H, G105V
VL: B1 VL
notes: IgG1 kappa
B8: SA301a HC-V100aD (antibody, name in Kabat numbering, V domains shown)
VH: B1 VH with G105D
VL: B1 VL
notes: IgG1 kappa
B9: SA301a HC-V100aT (antibody, name in Kabat numbering, V domains shown)
VH: B1 VH with G105T
VL: B1 VL
notes: IgG1 kappa
B10: SA301a HC-I99P (antibody, name in Kabat numbering, V domains shown)
VH: B1 VH with I103P, G105V
VL: B1 VL
notes: IgG1 kappa
B11: SA301a HC-I99N (antibody, name in Kabat numbering, V domains shown)
VH: B1 VH with I103N, G105V
VL: B1 VL
notes: IgG1 kappa
B12: SA301a HC-I99F (antibody, name in Kabat numbering, V domains shown)
VH: B1 VH with I103F, G105V
VL: B1 VL
notes: IgG1 kappa
B13: SA301a HC-N100bR (antibody, name in Kabat numbering, V domains shown)
VH: B1 VH with G105V, N106R
VL: B1 VL
notes: IgG1 kappa
B14: SA301a HC-I99A (antibody, name in Kabat numbering, V domains shown)
VH: B1 VH with I103A, G105V
VL: B1 VL
notes: IgG1 kappa
B15: SA301a HC-N100bE (antibody, name in Kabat numbering, V domains shown)
VH: B1 VH with G105V, N106E
VL: B1 VL
notes: IgG1 kappa
B16: SA301a HC-I99Y (antibody, name in Kabat numbering, V domains shown)
VH: B1 VH with I103Y, G105V
VL: B1 VL
notes: IgG1 kappa
B17: SA301a HC-V100aS (antibody, name in Kabat numbering, V domains shown)
VH: B1 VH with G105S
VL: B1 VL
notes: IgG1 kappa
B18: SA301a HC-I99G (antibody, name in Kabat numbering, V domains shown)
VH: B1 VH with I103G, G105V
VL: B1 VL
notes: IgG1 kappa
B19: SA301a HC-I99E (antibody, name in Kabat numbering, V domains shown)
VH: B1 VH with I103E, G105V
VL: B1 VL
notes: IgG1 kappa
B20: SA301a HC-I99M (antibody, name in Kabat numbering, V domains shown)
VH: B1 VH with I103M, G105V
VL: B1 VL
notes: IgG1 kappa
B21: SA301a HC-I99D (antibody, name in Kabat numbering, V domains shown)
VH: B1 VH with I103D, G105V
VL: B1 VL
notes: IgG1 kappa
B22: SA301a HC-I99L (antibody, name in Kabat numbering, V domains shown)
VH: B1 VH with I103L, G105V
VL: B1 VL
notes: IgG1 kappa
B23: SA301a HC-V100aI (antibody, name in Kabat numbering, V domains shown)
VH: B1 VH with G105I
VL: B1 VL
notes: IgG1 kappa
B24: SA301a HC-N100bP (antibody, name in Kabat numbering, V domains shown)
VH: B1 VH with G105V, N106P
VL: B1 VL
notes: IgG1 kappa
B25: SA301a HC-N100bY (antibody, name in Kabat numbering, V domains shown)
VH: B1 VH with G105V, N106Y
VL: B1 VL
notes: IgG1 kappa
B26: SA301a HC-N100bM (antibody, name in Kabat numbering, V domains shown)
VH: B1 VH with G105V, N106M
VL: B1 VL
notes: IgG1 kappa
B27: SA301a HC-N100bQ (antibody, name in Kabat numbering, V domains shown)
VH: B1 VH with G105V, N106Q
VL: B1 VL
notes: IgG1 kappa
B28: SA301a HC-V100aF (antibody, name in Kabat numbering, V domains shown)
VH: B1 VH with G105F
VL: B1 VL
notes: IgG1 kappa
B29: SA301a HC-Y53R (antibody, name in Kabat numbering, V domains shown)
VH: B1 VH with Y54R, G105V
VL: B1 VL
notes: IgG1 kappa
B30: SA301a HC-Y53L (antibody, name in Kabat numbering, V domains shown)
VH: B1 VH with Y54L, G105V
VL: B1 VL
notes: IgG1 kappa
B31: SA301a HC-Y53P (antibody, name in Kabat numbering, V domains shown)
VH: B1 VH with Y54P, G105V
VL: B1 VL
notes: IgG1 kappa
B32: SA301a HC-Y53V (antibody, name in Kabat numbering, V domains shown)
VH: B1 VH with Y54V, G105V
VL: B1 VL
notes: IgG1 kappa
B33: SA301a HC-Y53S (antibody, name in Kabat numbering, V domains shown)
VH: B1 VH with Y54S, G105V
VL: B1 VL
notes: IgG1 kappa
B34: SA301a HC-Y53K (antibody, name in Kabat numbering, V domains shown)
VH: B1 VH with Y54K, G105V
VL: B1 VL
notes: IgG1 kappa
B35: SA301a HC-Y53M (antibody, name in Kabat numbering, V domains shown)
VH: B1 VH with Y54M, G105V
VL: B1 VL
notes: IgG1 kappa
B36: SA301a HC-Y53Q (antibody, name in Kabat numbering, V domains shown)
VH: B1 VH with Y54Q, G105V
VL: B1 VL
notes: IgG1 kappa
B37: SA301a HC-Y53T (antibody, name in Kabat numbering, V domains shown)
VH: B1 VH with Y54T, G105V
VL: B1 VL
notes: IgG1 kappa
B38: SA304a (antibody, human IgG1, V domains shown)
VH: B1 VH with S35A, G101A, G105V
VL: B1 VL
B39: SA308a (antibody, human IgG1, V domains shown)
VH: B1 VH with S35A, S57A, G105V
VL: B1 VL
B40: SA306a (antibody, human IgG1, V domains shown)
VH: B1 VH with S35N, G105V
VL: B1 VL
B41: SA305a (antibody, human IgG1, V domains shown)
VH: B1 VH with S35A, Y100F, G101A, G105V
VL: B1 VL

Molecular target: T1, human IL-18BP
Assay: BLI, apparent KD

Binder	Kd
B1	0.55 nM
B2	0.25 nM
B3	0.41 nM
B4	0.46 nM
B5	0.68 nM
B6	0.47 nM
B7	0.61 nM
B8	4.99 nM
B9	0.27 nM
B10	0.41 nM
B11	0.55 nM
B12	0.64 nM
B13	0.25 nM
B14	0.51 nM
B15	0.31 nM
B16	0.48 nM
B17	0.28 nM
B18	1.04 nM
B19	1.95 nM
B20	0.21 nM
B21	1.01 nM
B22	0.49 nM
B23	0.09 nM

Molecular target: T2, cynomolgus IL-18BP
Assay: BLI, apparent KD

Binder	Kd
B1	0.92 nM
B2	0.44 nM
B3	0.06 nM
B24	0.11 nM
B4	0.69 nM
B25	0.47 nM
B5	0.11 nM
B6	0.15 nM
B7	0.83 nM
B8	0.36 nM
B9	0.06 nM
B10	0.51 nM
B11	0.66 nM
B26	1.83 nM
B12	0.97 nM
B14	0.61 nM
B15	0.91 nM
B16	0.45 nM
B17	0.53 nM
B18	0.67 nM
B19	3.98 nM
B27	0.42 nM
B20	0.37 nM
B21	1.07 nM
B22	0.89 nM
B28	0.44 nM
B23	0.25 nM

Molecular target: T1, human IL-18BP
Assay: BLI, apparent KD
Remark: another data set of the same source

Binder	Kd
B29	7.08 nM
B30	2.42 nM
B31	0.38 nM
B32	2.16 nM
B33	2.64 nM
B34	3.16 nM
B35	0.4 nM
B36	1.81 nM
B37	1.95 nM

Molecular target: T3, human IL-18BP (interleukin-18 binding …)
Assay: cell-based or functional assay

Binder	EC50 in PBMC Assay 1 (endogenous IL-18BP), IFNγ	EC50 in PBMC Assay 2 (precomplexed IL-18BP), IFNγ
B38	3.1 nM	3 nM
B39	7.9 nM	2.2 nM
B40	127 nM	19.7 nM
B41	4.4 nM	0.79 nM
